From patent publication US20140234868A1, “USE FOR GLYCOLIPOPROTEIN GINTONIN, ISOLATED AND IDENTIFIED FROM GINSENG, AS A NATURAL MEDICAL-PLANT DERIVED LIGAND” (KONKUK UNIVERSITY INDUSTRIAL COOPERATION CORP., priority 2011, published 2014)

Experiments:
Assay in all cases: cell-based or functional assay
[1] = target: LPA4 receptor (Homo sapiens, UniProt Q99677)
[2] = target: LPA1 receptor endogenous to Xenopus oocytes (Xenopus laevis)
[3] = target: T1, LPA3 receptor (wild-type) (human) (UniProt Q9UBY5)
T1 sequence (looked up): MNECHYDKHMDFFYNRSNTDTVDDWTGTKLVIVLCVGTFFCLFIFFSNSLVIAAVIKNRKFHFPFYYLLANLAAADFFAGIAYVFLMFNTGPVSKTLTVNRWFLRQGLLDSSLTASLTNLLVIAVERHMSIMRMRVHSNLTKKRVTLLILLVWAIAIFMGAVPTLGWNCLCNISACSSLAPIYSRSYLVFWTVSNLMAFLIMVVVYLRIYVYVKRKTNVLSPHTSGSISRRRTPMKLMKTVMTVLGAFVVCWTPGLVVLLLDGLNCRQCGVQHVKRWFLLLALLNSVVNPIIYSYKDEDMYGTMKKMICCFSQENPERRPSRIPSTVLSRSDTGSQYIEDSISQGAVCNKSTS

[4] = target: LPA5 receptor (Homo sapiens, UniProt Q9H1C0)
Sequence of LPA5 receptor (Q9H1C0 whole entry): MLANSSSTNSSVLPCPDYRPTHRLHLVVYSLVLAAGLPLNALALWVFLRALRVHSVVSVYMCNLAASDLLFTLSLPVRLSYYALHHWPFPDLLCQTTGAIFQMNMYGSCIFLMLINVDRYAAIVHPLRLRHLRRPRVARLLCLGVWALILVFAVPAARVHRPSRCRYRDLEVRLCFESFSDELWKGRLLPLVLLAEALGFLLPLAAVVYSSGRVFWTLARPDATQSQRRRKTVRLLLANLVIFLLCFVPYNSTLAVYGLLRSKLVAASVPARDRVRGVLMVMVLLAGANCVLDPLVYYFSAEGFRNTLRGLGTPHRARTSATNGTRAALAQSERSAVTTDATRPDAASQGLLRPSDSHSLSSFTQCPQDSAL

[5] = target: LPA2 receptor (Homo sapiens, UniProt Q9HBW0)
Sequence of LPA2 receptor (Q9HBW0 whole entry): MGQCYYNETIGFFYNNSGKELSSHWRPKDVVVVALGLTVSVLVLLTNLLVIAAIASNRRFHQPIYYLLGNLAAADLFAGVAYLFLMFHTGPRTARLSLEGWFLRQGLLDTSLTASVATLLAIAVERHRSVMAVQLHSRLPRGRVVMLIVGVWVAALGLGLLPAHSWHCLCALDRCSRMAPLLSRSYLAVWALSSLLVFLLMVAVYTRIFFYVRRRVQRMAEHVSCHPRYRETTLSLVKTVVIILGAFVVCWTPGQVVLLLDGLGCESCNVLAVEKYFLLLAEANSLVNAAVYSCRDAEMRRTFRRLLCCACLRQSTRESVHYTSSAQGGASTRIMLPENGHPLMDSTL

[6] = target: LPA1 receptor (Homo sapiens, UniProt Q92633)
Sequence of LPA1 receptor (Q92633 whole entry): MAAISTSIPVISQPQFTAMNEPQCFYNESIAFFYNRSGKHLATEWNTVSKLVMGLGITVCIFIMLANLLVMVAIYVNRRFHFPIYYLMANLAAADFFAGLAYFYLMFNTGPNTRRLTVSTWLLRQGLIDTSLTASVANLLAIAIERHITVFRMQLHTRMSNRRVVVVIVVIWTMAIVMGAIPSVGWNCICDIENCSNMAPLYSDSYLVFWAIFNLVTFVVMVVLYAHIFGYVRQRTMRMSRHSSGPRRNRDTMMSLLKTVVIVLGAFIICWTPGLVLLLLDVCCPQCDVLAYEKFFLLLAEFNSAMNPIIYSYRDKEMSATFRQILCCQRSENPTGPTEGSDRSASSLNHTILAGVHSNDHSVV

Sequence of LPA4 receptor (Q99677 whole entry): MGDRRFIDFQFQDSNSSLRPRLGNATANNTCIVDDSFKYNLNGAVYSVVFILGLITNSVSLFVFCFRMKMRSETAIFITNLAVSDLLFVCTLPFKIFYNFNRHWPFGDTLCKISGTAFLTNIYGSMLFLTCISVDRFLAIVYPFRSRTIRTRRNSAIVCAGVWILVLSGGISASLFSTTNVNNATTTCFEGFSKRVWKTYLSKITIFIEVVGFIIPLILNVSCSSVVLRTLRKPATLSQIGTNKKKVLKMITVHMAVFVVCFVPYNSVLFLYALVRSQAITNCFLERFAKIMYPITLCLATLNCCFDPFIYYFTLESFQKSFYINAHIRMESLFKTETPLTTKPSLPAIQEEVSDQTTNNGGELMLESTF

increase of intracellular calcium level in receptor-expressing B103 cells upon treatment with gintonin (Fura-2AM) [1]: 61.6 nM | ED50 of gintonin-induced NMDA receptor-mediated inward currents in NMDA receptor-expressing Xenopus oocytes [2]: 0.49 µg/mL | ED50 of gintonin-induced activation of BKCa K+ channels expressed in Xenopus oocytes [2]: 0.71 µg/mL | EC50 of LPA receptor-mediated intracellular calcium increase in B103 cells [3]: 0.12 nM | increase of intracellular calcium level in receptor-expressing B103 cells, gintonin 1 µg/ml (Fura-2AM) [3]: 206 nM | EC50 of LPA receptor-mediated intracellular calcium increase in B103 cells [4]: 0.046 nM | increase of intracellular calcium level in receptor-expressing B103 cells, gintonin 1 µg/ml (Fura-2AM) [4]: 298 nM | EC50 of LPA receptor-mediated intracellular calcium increase in B103 cells [5]: 0.004 nM | increase of intracellular calcium level in receptor-expressing B103 cells, gintonin 1 µg/ml (Fura-2AM) [5]: 208 nM | EC50 of LPA receptor-mediated intracellular calcium increase in B103 cells [6]: 0.1 nM | increase of intracellular calcium level in receptor-expressing B103 cells, gintonin 1 µg/ml (Fura-2AM) [6]: 186 nM
B1: glycolipoprotein gintonin isolated from ginseng (ligand)
chain 1: MGLTGKLICQTGIKSDGDVFHELFGTRPHHVPNITPANIQGCDLHEGEFGKVGSVVIWNYSIDGNAMIAKEEIVAIDEEDKSVTFKVVEGHLFEEFKSIVFSVHVDTKGEDNLVTWSIDYEKLNESVKDPTSYLDFLLSVTRDIEAHHLPK
chain 2: RSDYPWAMFALRLQWPAGFCEVNNACDTKSLLNTFTIHGLYPYNAKGTPALYCDGTAFDVNSVSDFLAEMHLAWPSHETNTEDIQFWEHEWKKHGRCSEALLKQTDYFRTALAFRKAFDIVGLLNQEGIYPNNDLYRPKMIKEAIKKHLNAVPEIDFTKNENSEYVLTDINVCVNQQATRFVDCPTDDATDDYRLKFVRLPSKMKFADPRTNSII
modifications: three N-glycosylation sites (positions not numbered in the text); bound sugars and lipids
